Assay results: patent publication US20210228738A1

Key:
[1] = molecular target: rhesus macaque IgG (NHP plasma)
[2] = molecular target: hamster IgG (pooled hamster plasma)
[3] = molecular target: total IgG in human serum samples and pooled human plasma

B1: immunoglobulin G-degrading enzyme of Streptococcus pyogenes (IdeS) (protein)
chain: DSFSANQEIRYSEVTPYHVTSVWTKGVTPPANFTQGEDVFHAPYVANQGWYDITKTFNGKDDLLCGAATAGNMLHWWFDQNKDQIKRYLEEHPEKQKINFNGEQMFDVKEAIDTKNHQLDSKLFEYFKEKAFPYLSTKHLGVFPDHVIDMFINGYRLSLTNHGPTPVKEGSKDPRGGIFDAVFTRGDQSKLLTSRHDFKEKNLKEISDLIKKELTEGKALGLSHTYANVRINHVINLWGADFDSNGNLKAIYVTDSDSNASIGMKKYFVGVNSAGKVAISAKEIKEDNIGAQVLGLFTLSTGQDSWNQTN
cleavage of IgG, non-reducing SDS-PAGE and Coomassie stain [1]: In the NHP samples, IgG was similarly cleaved in all NAb titer groups
cleavage of IgG, non-reducing SDS-PAGE and Coomassie Blue staining [2]: IdeS was effective to cleave the IgG in the pooled hamster plasma and pooled human plasma in vitro
cleavage of IgG, non-reducing SDS-PAGE and Coomassie Blue staining [3]: IdeS was effective to cleave the IgG in the pooled hamster plasma and pooled human plasma in vitro
cleavage of IgG, non-reducing SDS-PAGE and Coomassie stain [3]: the lowest dose of IdeS cleaved all total IgG (~150 kD) to liberate the Fc fragment (~25 kD)
